# Measured values from PMC4284922.
# T1: untagged STAT1, wild type (human), P42224
# T1 chain: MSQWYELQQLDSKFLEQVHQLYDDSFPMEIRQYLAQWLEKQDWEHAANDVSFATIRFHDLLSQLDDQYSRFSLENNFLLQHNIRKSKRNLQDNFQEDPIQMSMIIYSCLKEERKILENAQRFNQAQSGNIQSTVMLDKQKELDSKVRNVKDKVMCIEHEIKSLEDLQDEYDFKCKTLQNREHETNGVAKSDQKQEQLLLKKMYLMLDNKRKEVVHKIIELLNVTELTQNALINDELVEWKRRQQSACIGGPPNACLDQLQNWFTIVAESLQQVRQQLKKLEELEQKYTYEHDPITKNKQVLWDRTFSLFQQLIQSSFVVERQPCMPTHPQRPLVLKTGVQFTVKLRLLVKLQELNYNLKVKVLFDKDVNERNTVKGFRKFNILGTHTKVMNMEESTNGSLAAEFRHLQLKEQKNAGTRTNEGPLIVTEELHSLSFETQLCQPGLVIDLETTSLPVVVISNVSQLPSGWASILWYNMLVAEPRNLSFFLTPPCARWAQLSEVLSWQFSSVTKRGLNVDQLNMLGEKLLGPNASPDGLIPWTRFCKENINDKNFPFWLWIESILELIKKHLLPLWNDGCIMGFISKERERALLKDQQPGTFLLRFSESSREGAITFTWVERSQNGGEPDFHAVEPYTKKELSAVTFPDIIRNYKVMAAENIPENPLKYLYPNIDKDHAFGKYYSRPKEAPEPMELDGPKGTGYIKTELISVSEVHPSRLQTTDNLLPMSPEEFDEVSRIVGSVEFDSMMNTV
# Legend:
# STAT1 (Homo sapiens) = STAT1 (Homo sapiens) (UniProt P42224); assay: analytical ultracentrifugation; settings: cited from earlier work
# [1] = target: T1, untagged STAT1, wild type (human), …; assay: native gel or EMSA; extracts with GFP-tagged and with untagged STAT1 mixed and co-incubated for 0, 15 or 30 min at room temperature with [33P]-labelled M67 (single GAS site); band of intermediate mobility; settings: remark: other sources report otherwise
half-life of the dimer [1],Molecule,Kd (STAT1 (Homo sapiens))
,STAT1 (from UniProt P42224),50 nM
> 10 min,"untagged STAT1, wild type, P42224 1-750 (natural protein, here or on the partner: phosphotyrosine at 701 (tyrosine-phosphorylated, from IFNγ-stimulated cells); phosphotyrosine at 701 (tyrosine-phosphorylated, from IFNγ-stimulated cells)) MSQWYELQQLDSKFLEQVHQLYDDSFPMEIRQYLAQWLEKQDWEHAANDVSFATIRFHDLLSQLDDQYSRFSLENNFLLQHNIRKSKRNLQDNFQEDPIQMSMIIYSCLKEERKILENAQRFNQAQSGNIQSTVMLDKQKELDSKVRNVKDKVMCIEHEIKSLEDLQDEYDFKCKTLQNREHETNGVAKSDQKQEQLLLKKMYLMLDNKRKEVVHKIIELLNVTELTQNALINDELVEWKRRQQSACIGGPPNACLDQLQNWFTIVAESLQQVRQQLKKLEELEQKYTYEHDPITKNKQVLWDRTFSLFQQLIQSSFVVERQPCMPTHPQRPLVLKTGVQFTVKLRLLVKLQELNYNLKVKVLFDKDVNERNTVKGFRKFNILGTHTKVMNMEESTNGSLAAEFRHLQLKEQKNAGTRTNEGPLIVTEELHSLSFETQLCQPGLVIDLETTSLPVVVISNVSQLPSGWASILWYNMLVAEPRNLSFFLTPPCARWAQLSEVLSWQFSSVTKRGLNVDQLNMLGEKLLGPNASPDGLIPWTRFCKENINDKNFPFWLWIESILELIKKHLLPLWNDGCIMGFISKERERALLKDQQPGTFLLRFSESSREGAITFTWVERSQNGGEPDFHAVEPYTKKELSAVTFPDIIRNYKVMAAENIPENPLKYLYPNIDKDHAFGKYYSRPKEAPEPMELDGPKGTGYIKTELISVSEVHPSRLQTTDNLLPMSPEEFDEVSRIVGSVEFDSMMNTV",
